Experimental data published in the nanobody polyreactivity screen of Harvey et al. (2022).

Test: yeast display, Sf9 membrane polyspecificity reagent, FACS + sequencing; frameworks hold sequencing errors
In short: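 Galactose-induced (36–48 hours) yeast carrying a synthetic nanobody display library were exposed to 10% biotinylated, detergent-solubilized Sf9 membrane reagent at 4 °C for 1 hour. FACS followed streptavidin microbead enrichment, using low and high (top ~1%) gates for expression (anti-HA) and reagent binding (streptavidin). Colony PCR, MiSeq 2 × 250 sequencing and CDR-length filtering followed. Labels for polyreactivity reflect the gate of origin.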

| Sequence | polyreactivity (PSR sort gate) |
| --- | --- |
| QVQLVESGGGLVQAGGSLRLSCAASGNIFYYYAMGWYRQAPGKERELVAAISNGITYYADSVKGRFTISRDNAKNTVYLQMNSLKPEDTAVYYCAVDSDGNVRAVSGESLYDYWGQGTQVTVSS | low polyreactivity |
| QVQLVESGGGLVQAGGSLRLSCAASGNIFYYYAMGWYRQAPGKERELVAAISWRGGITYYANSVKGRFTISRDNAKNTVYLQMNSLKPEDNAVYYCNAVQPGYPNGFAVRYNYWGQGTQVTVSS | low polyreactivity |
| QVQLVESGGGLVQAGGSLRLSCAASGNIFYYYAMGWYRQAPGKERELVATISKGGGSTNYADSVKGRFTISRDNAKNTVYLQMNSLKPEDTAVYYCNASYVSRRYHFDYWGQGTQVTVSS | high polyreactivity |
| QVQLVESGGGLVQAGGSLRLSCAASGNILFYNAMGWYRQAPGKERELVAAISRSAGSTYYADSVKGRFTISRDNAKNTVYLQMNSLKPEDTAVYYCAAQYFRRSVYWGQGTQVTVSS | high polyreactivity |
| QVQLVESGGGLVQAGGSLRLSCAASGNILIGNVMGWYRQAPGKERELVAAITSGGDTYYADSVKGRFTISRDNAKNTVNLQMNSLKPEDTAVYYCAADRPGQPKYEYWGQGTQVTVSS | low polyreactivity |
| QVQLVESGGGLVQAGGSLRLSCAASGNISYTYVMGWSRQAPGKHRELVAAITWSTGSTYYADSVKGRFTISRDNAKNTVYLQMNSLKPEDTAVYYCAVDGGEFSSYGYWGQGTQVTVSS | low polyreactivity |
| QVQLVESGGGLVQAGGSLRLSCAASGNIYSWYAMGWYRQAPGKERELVAVISRSGGSTYYADSVKGRFTISRDNAKNTVYLQMNSLKPEDTAVYYCAARAYRTPYSIQFDYWGQGTQVTVSS | high polyreactivity |
| QVQLVESGGGLVQAGGSLRLSCAASGNTFAQNTMGWYRQAPGKEREFVAGITFSGTGTYYADSVKGRFTISRDNAKNTVYLQMNSLKPEDTAVYYCAAESVYTWYYQDDDDYWGQGTQVTVSS | low polyreactivity |
| QVQLVESGGGLVQAGGSLRLSCAASGNTFCQYAMGWYRQAPGKERELVAAITRSTGSTYYADSVNGRFTISRDNAKNTVYLQMISLKPEDTAVYYCAADFYRHYFRVDSWGQGTQVTVSS | low polyreactivity |
| QVQLVESGGGLVQAGGSLRLSCAASGNTFDGNAMGWYRQAPGQERELVAAINYSGASTSYADSVKGRFTISRDNAKNTVYLQMNSLKREDTAVYYCAADYPPLYRKYDYWGHGTQVTVSS | low polyreactivity |
| QVQLVESGGGLVQAGGSLRLSCAASGNTFEYYAMGWYRQAPGKERELVAAITSGGSTNYADSVKGRFTISRDNAKNTVYYQMNSLKPEDTAVYYCAADQWGYEYDYWGQGTQVTVSS | low polyreactivity |
| QVQLVESGGGLVQAGGSLRLSCAASGNTFEYYVMGWYRQAPGKERELVAAITWSTGSTYYADSVKGRFTISRDNAKNTVYLQMNSLKPEDTAVYYCAALYYFIFGRPTRFDYWGQGTQVTVSS | low polyreactivity |
| QVQLVESGGGLVQAGGSLRLSCAASGNTFGLYAMGWYRQAPGKEREFVADITTDGGTTYYADSVKGRFTISRDNAKNTVYLQMNSLKPEDTAVYYCAKLGTFGQHQYDYWGQGTQVTVSS | low polyreactivity |
| QVQLVESGGGLVQAGGSLRLSCAASGNTFGRYAMGWYRQAPGKERELVASIRGSSVRTFYADSVKGRFTISRDNAKNTVYLQMNSLKPEDTAVYYCAKRGYAYPSSYDSWGQGTQVTVSS | high polyreactivity |
| QVQLVESGGGLVQAGGSLRLSCAASGNTFGYYAMGWYRQAPGKERELVAAITWNGDRTYYADSVKGRFTISRDNAKNTVYLQMNSLKPEDTAVYYCNKVNPYRHGYWGQGTQVTVSS | high polyreactivity |
| QVQLVESGGGLVQAGGSLRLSCAASGNTFHPYAMGWYRQAPGKERALVAAITKSGGSTYYADSVKGRFTISRDNAKNTVYLQMNSLKPEDTAVYYCATDGYEYTDYGSSGYDYWGQGTQVTVSS | low polyreactivity |

| Sequence | polyreactivity (PSR sort gate) |
| --- | --- |
| QVQLVESGGGLVQAGGSLRLSCAASGNTFIEYAMGWYRQAPGKERELVAAINWNGGSTYYADSVKGRFTISRDNAKNTVYLQMNSLKPEDTAVYYCYADYPQYWDYRTSDYTYGTYNYWGQGTQVTVSS | low polyreactivity |
| QVQLVESGGGLVQAGGSLRLSCAASGNTFIGNAMGWYRQAPGKERELVAAISWSTDSTYYADSVKGRFTISRDNAKNSVYLQMNSLKPEDTAINYCAADYSHLPIAWYYYWGQGTQVTVSS | low polyreactivity |
| QVQLVESGGGLVQAGGSLRLSCAASGNTFIYYGMGWYRQAPGKERELVAAITWSGGSTYYADSVKGRFTISRDNAKNTVYLQMNSLKPEETAVYYCAKFTHNYYYWGQGTQVTVSS | high polyreactivity |
| QVQLVESGGGLVQAGGSLRLSCAASGNTFLRNTMGWYRQAPGTERELVAAISWGGGTTYYADSVKGRFTISRDNAKNTVYLQMNILKPEDTAVYYCNARYYSRRGNSWGQGTQVTVSS | high polyreactivity |
| QVQLVESGGGLVQAGGSLRLSCAASGNTFNANAMGWYRQAPGKERELVAVISANGGRTYYADSVKGRFTISRDNAKNTVYLQMNSLKPEDTAVYYCATGRYGGQGYPFYYWGQGTQVTVSS | low polyreactivity |
| QVQLVESGGGLVQAGGSLRLSCAASGNTFNPNAMGWYRQAPGKERELVAVIRFRGGSTYYADSVKGRFTISRDNAKNTVYLQMNSLKPEDTAVYYCNVYRGRYLYAWRPRGYWGQGTQVTVSS | high polyreactivity |
| QVQLVESGGGLVQAGGSLRLSCAASGNTFNSYAMGWYRQAPGKERELVAAISSSTGRTYYADSVKGRFTISRDNAKNTVYLQMNSLKPEDTAVYYCNAYLYLSRNGYWGQGTQVTVSS | high polyreactivity |
| QVQLVESGGGLVQAGGSLRLSCAASGNTFPAYAMGWYRQAPGTGGELVATISWSTGSTNYADSVKGRFTISRDNAKNTVYLQMNSLKPEDTAVYYCNKRYPSDQMDYWGQGTQVTVSS | low polyreactivity |
| QVQLVESGGGLVQAGGSLRLSCAASGNTFPPNAMGWYRQAPGKERELVAAISWSGDSTYYADSVKGRFTISRDYAKNTVYLQMYSLKPEDTAVYYCAAAIFGEYEYWGQGTQVTVSS | low polyreactivity |
| QVQLVESGGGLVQAGGSLRLSCAASGNTFPSYAMGWYRQAPGKERQLVAAITSGGRTYYADSVKGRFTISRDNAKNTVYLQMNSLKPEDTAVYYCAADWVVRYPWYRYYYWGPGTQVTVSS | high polyreactivity |
| QVQLVESGGGLVQAGGSLRLSCAASGNTFRWYVMGWYRQAPGKERELVAAITSSGSTTYYADSVKGRFTISRDNAKNTVYLQMNSLKPEDTAVYYCAARNYGPYDYWGQGTQVTVSS | low polyreactivity |
| QVQLVESGGGLVQAGGSLRLSCAASGNTFSPYGMGWYRQAPGKERELVAGITISDDSTYYADSVKGRFTISRDNAKNTVYLQMNSLKPEDTAVYYCNARYLSWYFKYLYDYWGQGTQVTVSS | low polyreactivity |
| QVQLVESGGGLVQAGGSLRLSCAASGNTFTFYAMGWYRQAPGKERELVASITGRGGSTYYADSVKGRFTISRDNAKNTVYLQMNSLKPEDTAVYYCNADYNSYRYRPPTTRDYWGQGTQVTVSS | low polyreactivity |
| QVQLVESGGGLVQAGGSLRLSCAASGNTFVRYDMGWYRQAPGKEREFVAAITASGGSTYADSVKGRFTISRDNAKNTVYLQMNSLKPEDTAVYYCNAGNSSTGVDRYDYWGQGTQVTVSS | low polyreactivity |
| QVQLVESGGGLVQAGGSLRLSCAASGNTFVSNAMGWYRPAPGKERELVAAISSTGNTNYADSVKGRFTISRDNAKNTDYLQMNSLKPEDTAVYYCAKGDKRAYVAYKEGSWGQGTQVTVSS | low polyreactivity |
| QVQLVESGGGLVQAGGSLRLSCAASGNTFVSNARGWYRQAPGKERELVAAIDSGGSTNYADSVKGRFTISRDNAKNTVYLQMNSLKPEDTAVYYCNRTSVYYYYWGQGTQVTVSS | low polyreactivity |
